Patent US20240123070A1 (SHANGHAI GENBASE BIOTECHNOLOGY, published 2024)
Where a chain is given by its changes, count along the chain named.

B1: B8.2.4 TCR mutant β96T-E (TCR, V domains shown)
V domain 1: AQKITQTQPGMFVQEKEAVTLDCTYDTSDPSYGLFWYKQPSSGEMIFLIYQGSYDQQNATEGRYSLNFQKARKSANLVISASQLGDSAMYFCAMRERTGTASKLTFGTGTRLQVTL
V domain 2: DVKVTQSSRYLVKRTGEKVFLECVQDMDHENMFWYRQDPGLGLRLIYFSYDVKMKEKGDIPEGYSVSREKKERFSLILESASTNQTSMYLCASSQEVPPQHFGDGTRLSILE
B2: B8.2.4 TCR mutant β97V-H (TCR, V domains shown)
V domain 1: B1 V domain 1
V domain 2: B1 V domain 2 with E96T, V97H
B3: B8.2.4 TCR mutant β97V-E (TCR, V domains shown)
V domain 1: B1 V domain 1
V domain 2: B1 V domain 2 with E96T, V97E
B4: B8.2.4 TCR mutant β96T-W (TCR, V domains shown)
V domain 1: B1 V domain 1
V domain 2: B1 V domain 2 with E96W
B5: B8.2.4 TCR mutant β96T-V (TCR, V domains shown)
V domain 1: B1 V domain 1
V domain 2: B1 V domain 2 with E96V
B6: B8.2.4 TCR mutant β97V-Q (TCR, V domains shown)
V domain 1: B1 V domain 1
V domain 2: B1 V domain 2 with E96T, V97Q
B7: B8.2.4 TCR mutant β97V-G (TCR, V domains shown)
V domain 1: B1 V domain 1
V domain 2: B1 V domain 2 with E96T, V97G
B8: B8.2.4 TCR mutant β96T-P (TCR, V domains shown)
V domain 1: B1 V domain 1
V domain 2: B1 V domain 2 with E96P
B9: B8.2.4 TCR mutant β97V-D (TCR, V domains shown)
V domain 1: B1 V domain 1
V domain 2: B1 V domain 2 with E96T, V97D
B10: B8.2.4 TCR mutant β97V-N (TCR, V domains shown)
V domain 1: B1 V domain 1
V domain 2: B1 V domain 2 with E96T, V97N
B11: B8.2.4 TCR mutant β96T-R (TCR, V domains shown)
V domain 1: B1 V domain 1
V domain 2: B1 V domain 2 with E96R
B12: B8.2.4 TCR mutant β97V-C (TCR, V domains shown)
V domain 1: B1 V domain 1
V domain 2: B1 V domain 2 with E96T, V97C
B13: B8.2.4 TCR mutant β97V-F (TCR, V domains shown)
V domain 1: B1 V domain 1
V domain 2: B1 V domain 2 with E96T, V97F
B14: B8.2.4 TCR mutant β96T-G (TCR, V domains shown)
V domain 1: B1 V domain 1
V domain 2: B1 V domain 2 with E96G
B15: B8.2.4 TCR mutant β96T-S (TCR, V domains shown)
V domain 1: B1 V domain 1
V domain 2: B1 V domain 2 with E96S
B16: B8.2.4 TCR mutant β96T-Y (TCR, V domains shown)
V domain 1: B1 V domain 1
V domain 2: B1 V domain 2 with E96Y
B17: B8.2.4 TCR mutant β97V-S (TCR, V domains shown)
V domain 1: B1 V domain 1
V domain 2: B1 V domain 2 with E96T, V97S
B18: B8.2.4 TCR mutant β96T-Q (TCR, V domains shown)
V domain 1: B1 V domain 1
V domain 2: B1 V domain 2 with E96Q
B19: B8.2.4 TCR mutant β97V-L (TCR, V domains shown)
V domain 1: B1 V domain 1
V domain 2: B1 V domain 2 with E96T, V97L
B20: B8.2.4 TCR mutant β97V-K (TCR, V domains shown)
V domain 1: B1 V domain 1
V domain 2: B1 V domain 2 with E96T, V97K
B21: B8.2.4 TCR mutant β97V-M (TCR, V domains shown)
V domain 1: B1 V domain 1
V domain 2: B1 V domain 2 with E96T, V97M
B22: B8.2.4 TCR mutant β97V-I (TCR, V domains shown)
V domain 1: B1 V domain 1
V domain 2: B1 V domain 2 with E96T, V97I
B23: B8.2.4 TCR mutant β96T-H (TCR, V domains shown)
V domain 1: B1 V domain 1
V domain 2: B1 V domain 2 with E96H
B24: B8.2.4 TCR mutant β96T-F (TCR, V domains shown)
V domain 1: B1 V domain 1
V domain 2: B1 V domain 2 with E96F
B25: B8.2.4 TCR mutant β96T-K (TCR, V domains shown)
V domain 1: B1 V domain 1
V domain 2: B1 V domain 2 with E96K
B26: B8.2.4 TCR mutant β96T-M (TCR, V domains shown)
V domain 1: B1 V domain 1
V domain 2: B1 V domain 2 with E96M
B27: B8.2.4 TCR mutant β96T-N (TCR, V domains shown)
V domain 1: B1 V domain 1
V domain 2: B1 V domain 2 with E96N
B28: B8.2.4 TCR mutant β97V-A (TCR, V domains shown)
V domain 1: B1 V domain 1
V domain 2: B1 V domain 2 with E96T, V97A
B29: B8.2.4 TCR mutant β97V-R (TCR, V domains shown)
V domain 1: B1 V domain 1
V domain 2: B1 V domain 2 with E96T, V97R
B30: B8.2.4 TCR mutant β97V-P (TCR, V domains shown)
V domain 1: B1 V domain 1
V domain 2: B1 V domain 2 with E96T, V97P
B31: B8.2.4 TCR mutant β96T-I (TCR, V domains shown)
V domain 1: B1 V domain 1
V domain 2: B1 V domain 2 with E96I
B32: B8.2.4 TCR mutant β96T-L (TCR, V domains shown)
V domain 1: B1 V domain 1
V domain 2: B1 V domain 2 with E96L

Target: KRAS G13D antigen (G13D-RT6, SEQ ID NO: 20) loaded on Lovo-DPA0301:DPB0501 cells (human)
Assay: cell-based or functional assay

TCR Mut RLU/WT RLU | Binder
0.06 ratio | B1
0.44 ratio | B2
0.31 ratio | B3
0.64 ratio | B4
0.97 ratio | B5
0.3 ratio | B6
0.26 ratio | B7
0.39 ratio | B8
0.21 ratio | B9
0.26 ratio | B10
0.49 ratio | B11
0.37 ratio | B12
0.31 ratio | B13
0.05 ratio | B14
0.8 ratio | B15
0.4 ratio | B16

TCR Mut RLU/WT RLU | Binder
0.78 ratio | B17
0.57 ratio | B18
0.58 ratio | B19
0.48 ratio | B20
0.35 ratio | B21
0.61 ratio | B22
0.82 ratio | B23
0.42 ratio | B24
0.84 ratio | B25
0.35 ratio | B26
0.82 ratio | B27
0.56 ratio | B28
0.37 ratio | B29
0.32 ratio | B30
0.41 ratio | B31
0.31 ratio | B32
